Measurements as given in patent US20250282874A1.

Biological target: human PD-L1 expressed on cells (human) (UniProt Q9NZQ7)
Assay: flow cytometry on 293T-PD-L1-CD3L cells, PE anti-human IgG, Mean PE-A; fit of a nearly flat control curve

EC50: 0.0292 µM
Substance: Isotype control (antibody)
